B1: Nogo-A-Δ20 (residues 544–725 of the rat Nogo-A sequence) (domain or fragment, UniProt Q9JK11-1 544-725, looked up)
chain: TGTKIAYETKVDLVQTSEAIQESLYPTAQLCPSFEEAEATPSPVLPDIVMEAPLNSLLPSAGASVVQPSVSPLEAPPPVSYDSIKLEPENPPPYEEAMNVALKALGTKEGIKEPESFNAAVQETEAPYISIACDLIKETKLSTEPSPDFSNYSEIAKFEKSVPEHAELVEDSSPESEPVDLF
notes: Nogo-A (reticulon 4-A), rat, 1163 residues; Nogo-A-Δ20 region, residues 544-725 (182 residues), numbered as in the rat Nogo-A protein; the T7-tag lies between the N-terminal His6-tag and Nogo-A-Δ20; The N-terminal His6-tag was removed with thrombin; also called 15N-labelled Nogo-A-Δ20; [13C, 15N]-Nogo-A-Δ20; not shown: His6, N-terminal, cleaved; T7-tag, N-terminal, kept; His6, C-terminal, kept

Tests used:
[1] = target: S1PR2 ECL2 peptide ECL2 (Homo sapiens) (UniProt O95136); experiment: MST; details: cited from earlier work
[2] = target: S1PR2 ECL3 peptide ECL3 (Homo sapiens) (UniProt O95136); experiment: MST; details: cited from earlier work
[3] = target: the molecule itself; experiment: pulsed field gradient NMR diffusion; Nogo-A-Δ20 at 30 μM or 560 μM, without or with TCEP (5 mM or 2 mM), pH 7.4, 6°C; diffusion coefficients compared

Row | Molecule | Kd [1] | Kd [2] | binding result [3]
1 | Nogo-A-Δ20 Δ20 (from UniProt Q9JK11) | 280 nM | 350 nM | –
2 | B1 | – | – | binds
